Test results as given in the nanobody polyreactivity screen of Harvey et al. (2022).

Assay: yeast display, Sf9 membrane polyspecificity reagent, FACS + sequencing; frameworks hold sequencing errors
Outline: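 A nanobody's polyreactivity label depends on the gate it was sorted from. Yeast display cells were stained with 10% biotinylated, detergent-solubilized Sf9 membrane reagent for 1 hour at 4 °C, enriched on streptavidin microbeads and sorted by FACS. The low and high (top ~1%) gates were set on anti-HA fluorescence for expression and streptavidin fluorescence for reagent binding.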

Sequence	polyreactivity (PSR sort gate)
QVQLVESGGGLVQAGGSLRLSCAASGNIYPYYAIGWYRQAPGKERELVAAINAGGGNTYYADSVKGRFTISRDNAKNTVYLQMNSLKPEDTAVYYCAARRVRIYYGSVVWYKYDYWGQGTQVTVSS	high polyreactivity
QVQLVESGGGLVQAGGSLRLSCAASGNMFYANAMGWYRQAPGKERELVAAISGSVCSTYADSVKGRFTISRDNAKNTVYLQMNSLKPEDTAVYYCNASVLDAIFYKSVGYDYWGQGTQVTVSS	low polyreactivity
QVQLVESGGGLVQAGGSLRLSCAASGNNFLLYAMVWYRQAPGKEREFVAAITWIAGSTYYADSVKGRFTISRDNAKNTVYLQMNSLKPEDTAVYYCAADSYWYDMDYWGQGTQVTVSS	high polyreactivity
QVQLVESGGGLVQAGGSLRLSCAASGNNFRRYAMGWSRQAPGKERELVAAITWRGGNTYYADSVKGRFTISRDIAKNTVYLQRNSLKPEDTAVYYCNRVYRQRLGRDYWGQGTQVTVSS	high polyreactivity
QVQLVESGGGLVQAGGSLRLSCAASGNTFAFNAMGWYRQATGKEREFVAAISYSGVSTYYADSVKGRFTISRDNAKNTVYLQMNSLKPEDTAVYYCAARYGWYKYWYDYWGQGTQVTVSS	high polyreactivity
QVQLVESGGGLVQAGGSLRLSCAASGNTFAYYAMGWYRQAPGKERELVAAISGSGGRTYYADSVKGRFTISRDNAKNTVYFQMNILKPEDTAVYYCNARPAGGLGYGYWGQGTQVTVSS	high polyreactivity
QVQLVESGGGLVQAGGSLRLSCAASGNTFDSYVMGWYRQAPGKERELVAAISYRGGSTYYADSVKGRFTISRDNAKNTVYLQMNSLKPEDSAVYFCAADYFYYVYSYWYDSWGQGTQVTVSS	high polyreactivity
QVQLVESGGGLVQAGGSLRLSCAASGNTFGAYAMGWYRQAPGKERELVAAITWSGGRTYYADSVKGRFTISRDNAKNTVYLQMNSLKPEDTAVYYCAADYGYYRGGVRFGYWGQGTQVTVSS	high polyreactivity
QVQLVESGGGLVQAGGSLRLSCAASGNTFGENAMGWYRQAPGKERELVAAISNGGTTNYADSVKGRFTISRDNAKNTVYLQMNSLKPEDTAVYYCNAKFGISQPGHSGLLKMDYWGQGTQVTVSS	low polyreactivity
QVQLVESGGGLVQAGGSLRLSCAASGNTFGENAMGWYRQAPWKERELVAAISNGGTTNYADSVKGRFTISRDNAKNTVYLQMNSLKPEDTAVYYSNAKFGISQPGHSGLLKMDYWGQGTQVTVSS	low polyreactivity
QVQLVESGGGLVQAGGSLRLSCAASGNTFGFNTMGWYRQAPGKERELVAAISKSGTRTFYADSVKGRFTISRDNAKNTVYLQMNSLKPEDTAVYYCAAVAKGGNWPAQGGGHDYWGQGTQVTVSS	high polyreactivity
QVQLVESGGGLVQAGGSLRLSCAASGNTFGIYAMGWYRQAPGKERELVAAISSGTSTNYADSVKGRFTISRDNAKNTVYLQMNSMKPEDTAVYYCNADDQYQDVREDYWGQGTQVTVSS	low polyreactivity
QVQLVESGGGLVQAGGSLRLSCAASGNTFGRNAMGWYIQAPGKERELVAAIDIGADTNYADSVKGRFTISRDNAKNTVYLQMNSLKPEDTAVYYCAASYRYVRWKWGYNYWGQGTQVTVSS	high polyreactivity
QVQLVESGGGLVQAGGSLRLSCAASGNTFGWNAMGWSRQAPGKERELVAAIDIGADTNYADSVKGRFTISRDNAKNTVYLQMNSLKPEDTAVYYCAASYRYVRWKWGYNYWGQGTQVTVSS	high polyreactivity
QVQLVESGGGLVQAGGSLRLSCAASGNTFGYYAMGWYRQAPGKERELVAAINFGGDTSYADSVKGRFTISRDNAKNTVYLQMNSLKPEDTAVYYCAADGSYWIYADGDYWGQGTQVTVSS	low polyreactivity
QVQLVESGGGLVQAGGSLRLSCAASGNTFHTNAMGWYRQAPGKERELVAAITGGGSTYYADSVKGRFTISRDNAKNTVYLQMNSLKPEDTAVYYCNTDVPYGLDVSDTIDYYYWGQGTQVTVSS	low polyreactivity
QVQLVESGGGLVQAGGSLRLSCAASGNTFKYYAMGWYRQAPGKERELVAAITWNGARTYYADSVKGRFTISRDNAKNTVYLQMNSLKPEDTAVYYCNARQGYRFDYWGQGTQVTVSS	high polyreactivity
QVQLVESGGGLVQAGGSLRLSCAASGNTFNAFNAMGWYRQAPGKERELVAAISRRGGSTYYADSVKGRFTISRDNAKNTVYLQMNSLKPEDTAVYYGAAYYSRSKYDYWGQGTQVTVSS	high polyreactivity
QVQLVESGGGLVQAGGSLRLSCAASGNTFPFNAMGWYRQAPGKERELVAAISRGGSTYYADSVKGRFTISRDNAKNTVYLQMNSLKPDDTAVYYCAAGYRRQGYGGYDYWGQGTQVTVSS	high polyreactivity
QVQLVESGGGLVQAGGSLRLSCAASGNTFPVYAMGWYRQASGKERELVATITSGGSTNYADSVKGRFTISRDNAKNTVYLQMNSLKPEDTAVYDCARRAVYAKRRYDYWGQGTQVTVSS	low polyreactivity
QVQLVESGGGLVQAGGSLRLSCAASGNTFQYYALGWYRQAPGKERELVAAITTGGSKNFADSVKGRFTISRDNAKNTVYLQMNSLKPEDTAVYYCAARGGVSKRISDYWGQGTQVTVSS	low polyreactivity
QVQLVESGGGLVQAGGSLRLSCAASGNTFRDYAMGWYRQAPGKERELVAAITSSGARTYYADSVKGRFTISRDNAKNTVYLQMNSLKPEDTAVYYCAADWSGYYTYDYWGQGTQVTVSS	low polyreactivity

Sequence	polyreactivity (PSR sort gate)
QVQLVESGGGLVQAGGSLRLSCAASGNTFRGYAMGWSRQAPGKEMELVAAITSGGRTYYADSVKGRFTISRDNAKNTVYLQMNSLKPEDTAVYYCNARQFAGDEWGQGTLVTVSS	high polyreactivity
QVQLVESGGGLVQAGGSLRLSCAASGNTFRSYVMGWYRQAPGKERELVADISSGDGTNYADSVKGRFTISRDNAKNTVYLQMNSLKPEDTAVYYCAKDVYNFRTTHSYFTGYDSWGQGTQVTVSS	low polyreactivity
QVQLVESGGGLVQAGGSLRLSCAASGNTFRYYAMGWYRQAPGKERELVATITSGGRTYYADSVKGRFTISRDNAKNTVYLQMNSLKPEDTAVYYCAAVGLDYFVGEYDYWGQGTQLTVSS	low polyreactivity
QVQLVESGGGLVQAGGSLRLSCAASGNTFSAYAMGWYRQAPGKERELVAAISSRGGSTYYADSVKGRFTISRDNAKNTVYLQMNSLKPEDTAVYYCAAGWFGTSYRYRSSFDYWGQGTQVTVSS	high polyreactivity
QVQLVESGGGLVQAGGSLRLSCAASGNTFSDYSMGWYRQAPGNERELVAAITISGGSTYYADSVKGRFTISRDNAKNTVYLQMNSLKPEDTAVYYCAADVWYILYDYWGQGTQVTVSS	low polyreactivity
QVQLVESGGGLVQAGGSLRLSCAASGNTFSGNAMGWYRQAPGKERELVAAISGSGASTYYADSVKGRFTISRDNAKNTVYLQMNSLKPEDTAVYYCAADKPGIFSRFDYWGQGTQVTVSS	low polyreactivity
QVQLVESGGGLVQAGGSLRLSCAASGNTFSLYAMGWYRQAPGKERELVAAITWITGSTDYADSVKGRFTISRDNAKNTVYLQMNSLKPEDTAVYYCAADGDFSWFYSYETGWIEYDYWGQGTQVTVSS	low polyreactivity
QVQLVESGGGLVQAGGSLRLSCAASGNTFSSNAMGWYRQAPGKERELVAGITKSGGRTYYADSVKGRFTISRDNAKNTVYLQMNSLKPEDTAVYYCNRRAGPYSIPYYYWGQGTQVTVSS	high polyreactivity
QVQLVESGGGLVQAGGSLRLSCAASGNTFSTYGMGWYRQAPGKERELVAGITSDGRTNYADSVKGRFTISRDNAKNTVYLQMNSMKPEVTAVYYCAAEWASRFAVFWAYPKYDYWGQGTQVTVSS	low polyreactivity
QVQLVESGGGLVQAGGSLRLSCAASGNTFSWYAMGWYRQAPWKERELVAVITSGGSTNYADSVKGRFTISRDNAKNTVYLQMNSLKTEDTAVYYFAADSYGGSKYDYWGQGTQVTVSS	low polyreactivity
QVQLVESGGGLVQAGGSLRLSCAASGNTFTGYAMGWYREAPGKERELVAAITRSGRTYYADSVKGRFTISRDNAKNTVYLQMTSLKPEDTAVYYCAADRRYVKYYYSGQGTQVTVSS	high polyreactivity
QVQLVESGGGLVQAGGSLRLSCAASGNTFTWYTMGWYRQAPGKERELVAVITSDGSTYYADSVKGRFTISRDNAKNTVYLQMNSLKPEDTAVYYCNALSADWYPEEDYWGQGTQVTVSS	low polyreactivity
QVQLVESGGGLVQAGGSLRLSCAASGNTFVKYVIGWYRQAPGKEREYVAAITVRGNTYYADSVKGRFTISRDNAKNTVYLQMNSLKPEDTAVYYCAARIYYLYKDRRLGYYWGQGTQVTVSS	high polyreactivity
QVQLVESGGGLVQAGGSLRLSCAASGNTFVYYAMGWYRQAPGKERELVAGISRRSGSTYYADSVKGRFTISRDNAKNTVYLQMNSLKPEDTAVYYCAKGRTYLDADDYWGQGTQVTVSS	low polyreactivity
QVQLVESGGGLVQAGGSLRLSCAASGNTFVYYNMGWYRQAPGKERELVAAINWSGGSTYYADSVKGRFTISRDNAKNTVYLQMNSLKPEDTAVYYCAADTSYYPYEYWGQGTQVTVSS	high polyreactivity
QVQLVESGGGLVQAGGSLRLSCAASGNTFWRYAMGWYRQAPGKERELVAAITYTSGSTYYADSVKGRFTISRDNAKNTVYLQMNSLKPEDTAVYYCAAESVYGSGYVFRYYYWGQGTQVSVSS	high polyreactivity
QVQLVESGGGLVQAGGSLRLSCAASGNTFYDYGMGWYRQAPGKERELVAGIDGSSTYYADSVKGRFTISRDNAKNTVYLQMNSLKPEDTAVYYCAAYVGSYVSYRAYPRIYYYWGQGTQVTLSS	low polyreactivity
QVQLVESGGGLVQAGGSLRLSCAASGNTFYGYAIGWYRQAPGKERELVASITLSGDSTYYADSVKGRFTISRDNAKNTVYLQMNSLKPEDTAVYYCAGVYTYPLGYYHYTYDYWGQGTQVTVSS	low polyreactivity
QVQLVESGGGLVQAGGSLRLSCAASGNTFYGYAMGWYRQAPGKERDLVATITGSGGDTYYADSVKGRFTISRDNAKNTVYLKMNSLKPEDTAVYYCNAVEYYGGYPGTQYYYLAYNYWGQGTQVTVSS	low polyreactivity
QVQLVESGGGLVQAGGSLRLSCAASGNTFYGYAMGWYRQAPGKERELVASITLSGDSTYYADSVKGRFTISRDNAKNTVYLQMNSLKPADTAVYYCAGVYTYPLGYYHYTYDYWGQGTQVTVSS	low polyreactivity
QVQLVESGGGLVQAGGSLRLSCAASGNTFYGYSMGWYRQAPGKERELVASITLSGDSTYYADSVKGRFTISRDNAKNTVYLQMNSLKPEDTAVYYCARRSRESYEYDYWGQGTQVTVSS	low polyreactivity
